By pKd is commonly meant −log10 of the Kd, conventionally taken in molar units.

Among the targets are FRMPD2_3, Q68DX3; MAGI1_2, Q96QZ7; Inadl_6, Q8NI35; PICK1, Q9NRD5; SNX27, Q96L92; GRID2IP_2, A4D2P6; GRASP, Q7Z6J2; FRMPD2_2, Q68DX3; LNX1_2, Q8TBB1; LAP2, Q96RT1.
Holding throughout (experiment): holdup assay
Common to all, as to set-up: key: below the threshold = too weak to quantify, mostly under pKd 3.1 to 4
What all share (settings): plain residues with an end cap or a label only (N-terminal biotin on a linker: ado-ado)

The next assay has as its target T1, MPDZ_5, O75970.
T1 sequence (O75970 695-796, limits assumed, looked up): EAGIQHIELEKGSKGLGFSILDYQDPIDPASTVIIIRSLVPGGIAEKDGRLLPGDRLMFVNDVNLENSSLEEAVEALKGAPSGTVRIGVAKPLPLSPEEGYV

Another assay has as its target T2, PDZD2_2, O15018.
T2 sequence (O15018 329-429, limits assumed, looked up): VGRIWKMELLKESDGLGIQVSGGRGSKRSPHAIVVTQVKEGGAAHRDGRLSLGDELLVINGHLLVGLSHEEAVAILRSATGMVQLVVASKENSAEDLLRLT

A further assay concerns the target T3, LIN7C, Q9NUP9.
T3 sequence (Q9NUP9 88-185, limits assumed, looked up): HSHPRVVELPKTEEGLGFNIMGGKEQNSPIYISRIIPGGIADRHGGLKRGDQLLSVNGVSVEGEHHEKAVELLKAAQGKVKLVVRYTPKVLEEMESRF

In the next assay the target is T4, GRIP1_4, Q9Y3R0.
T4 sequence (Q9Y3R0 467-571, limits assumed, looked up): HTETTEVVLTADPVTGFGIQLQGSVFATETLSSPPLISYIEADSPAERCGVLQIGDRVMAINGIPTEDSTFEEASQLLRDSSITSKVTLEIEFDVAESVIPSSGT

In another assay the target is T5, DLG3_2, Q92796.
T5 sequence (Q92796 221-321, limits assumed, looked up): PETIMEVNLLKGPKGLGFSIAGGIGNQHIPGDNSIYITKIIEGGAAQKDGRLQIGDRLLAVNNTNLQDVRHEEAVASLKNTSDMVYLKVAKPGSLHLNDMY

A further assay concerns the target T6, MPDZ_10, O75970.
T6 sequence (O75970 1624-1722, limits assumed, looked up): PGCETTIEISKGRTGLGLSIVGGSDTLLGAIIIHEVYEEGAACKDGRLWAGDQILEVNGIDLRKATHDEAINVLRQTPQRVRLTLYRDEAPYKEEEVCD

A further assay deals with T7, APBA1_1, Q02410.
T7 sequence (Q02410 651-752, limits assumed, looked up): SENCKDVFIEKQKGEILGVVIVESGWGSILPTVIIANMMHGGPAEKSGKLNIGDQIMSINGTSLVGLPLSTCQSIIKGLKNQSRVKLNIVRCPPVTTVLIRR

Another assay concerns the target T8, TIAM2, Q8IVF5.
T8 sequence (Q8IVF5 885-986, limits assumed, looked up): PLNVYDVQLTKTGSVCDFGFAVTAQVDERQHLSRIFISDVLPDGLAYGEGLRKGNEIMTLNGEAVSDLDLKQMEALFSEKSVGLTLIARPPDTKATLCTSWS

Another assay concerns the target T9, LIN7B, Q9HAP6.
T9 sequence (Q9HAP6 88-185, limits assumed, looked up): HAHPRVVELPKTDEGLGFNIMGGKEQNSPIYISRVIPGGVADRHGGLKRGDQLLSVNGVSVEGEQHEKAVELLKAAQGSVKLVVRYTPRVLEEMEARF

A further assay concerns the target T10, DVL3, Q92997.
T10 sequence (Q92997 244-331, limits assumed, looked up): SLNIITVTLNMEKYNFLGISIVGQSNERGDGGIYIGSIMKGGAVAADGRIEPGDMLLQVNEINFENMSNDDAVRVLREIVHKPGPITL

The next assay deals with T11, SNTB1, Q13884.
T11 sequence (Q13884 107-205, limits assumed, looked up): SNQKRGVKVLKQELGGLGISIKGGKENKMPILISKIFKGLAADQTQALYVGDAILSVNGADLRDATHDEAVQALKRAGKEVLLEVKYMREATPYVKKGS

The next assay addresses T12, ARHGEF11, O15085.
T12 sequence (O15085 42-136, limits assumed, looked up): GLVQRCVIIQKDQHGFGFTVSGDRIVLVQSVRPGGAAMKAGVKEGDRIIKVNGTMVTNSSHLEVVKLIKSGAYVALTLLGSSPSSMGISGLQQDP

In a further assay the target is T13, TX1BP3, O14907.
T13 sequence (O14907 10-122, limits assumed, looked up): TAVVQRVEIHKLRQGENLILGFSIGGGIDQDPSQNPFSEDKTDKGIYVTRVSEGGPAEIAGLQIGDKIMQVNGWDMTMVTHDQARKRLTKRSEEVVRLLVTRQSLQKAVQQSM

LAP2, Q96RT1, sequence (Q96RT1 other isoform, or with tags, fused parts or gaps): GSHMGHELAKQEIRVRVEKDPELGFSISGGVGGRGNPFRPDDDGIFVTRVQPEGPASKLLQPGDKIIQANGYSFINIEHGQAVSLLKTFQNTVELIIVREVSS
PICK1, Q9NRD5, sequence (Q9NRD5 17-115): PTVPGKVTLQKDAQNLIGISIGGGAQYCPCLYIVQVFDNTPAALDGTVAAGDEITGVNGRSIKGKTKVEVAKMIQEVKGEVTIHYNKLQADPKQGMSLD
FRMPD2_2, Q68DX3, sequence (Q68DX3 944-1038): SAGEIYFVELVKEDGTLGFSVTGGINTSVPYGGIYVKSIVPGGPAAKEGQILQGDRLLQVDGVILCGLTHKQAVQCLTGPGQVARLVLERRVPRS
Inadl_6, Q8NI35, sequence (Q8NI35 1058-1167): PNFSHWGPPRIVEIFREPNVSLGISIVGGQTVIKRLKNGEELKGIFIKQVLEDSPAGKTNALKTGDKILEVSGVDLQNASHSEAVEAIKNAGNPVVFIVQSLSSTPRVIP
GRID2IP_2, A4D2P6, sequence (A4D2P6 272-370): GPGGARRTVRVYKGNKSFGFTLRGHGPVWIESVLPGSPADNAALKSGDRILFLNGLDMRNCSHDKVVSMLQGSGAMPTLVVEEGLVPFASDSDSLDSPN
GRASP, Q7Z6J2, sequence (Q7Z6J2 96-193): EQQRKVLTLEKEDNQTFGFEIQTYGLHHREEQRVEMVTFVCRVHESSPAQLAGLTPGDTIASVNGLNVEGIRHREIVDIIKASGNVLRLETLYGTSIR
MAGI1_2, Q96QZ7, sequence (Q96QZ7 456-580): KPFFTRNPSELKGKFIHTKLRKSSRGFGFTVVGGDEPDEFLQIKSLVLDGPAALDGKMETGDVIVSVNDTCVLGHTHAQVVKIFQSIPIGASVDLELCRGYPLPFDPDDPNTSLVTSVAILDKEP
LNX1_2, Q8TBB1, sequence (Q8TBB1 371-470): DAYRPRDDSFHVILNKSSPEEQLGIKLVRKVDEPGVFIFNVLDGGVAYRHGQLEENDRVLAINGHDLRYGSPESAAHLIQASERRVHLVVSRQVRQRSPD
FRMPD2_3, Q68DX3, sequence (Q68DX3 1073-1166): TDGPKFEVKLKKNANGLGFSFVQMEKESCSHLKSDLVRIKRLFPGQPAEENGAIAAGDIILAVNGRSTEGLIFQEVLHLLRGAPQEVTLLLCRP

In the case of NTALVESEDL [PALLS, Q8WX93;Q8WX93-1], the pKd result with MPDZ_5, O75970 is “below the threshold”; with FRMPD2_3, Q68DX3, “below the threshold”; with PDZD2_2, O15018, “below the threshold”; in the assay with LIN7C, Q9NUP9, “below the threshold”; with MAGI1_2, Q96QZ7 it was “below the threshold”; in the assay with Inadl_6, Q8NI35, “below the threshold”. Further, the pKd result with GRIP1_4, Q9Y3R0 was “below the threshold”; in the assay with DLG3_2, Q92796, “below the threshold”; in the assay with MPDZ_10, O75970, “below the threshold”; with PICK1, Q9NRD5, “below the threshold”; in the assay with SNX27, Q96L92, 4.38; in the assay with GRID2IP_2, A4D2P6, “below the threshold”. The pKd entry is reported as “below the threshold” with GRASP, Q7Z6J2; “below the threshold” in the assay with FRMPD2_2, Q68DX3; “below the threshold” with LNX1_2, Q8TBB1; “below the threshold” with APBA1_1, Q02410; “below the threshold” with TIAM2, Q8IVF5; “below the threshold” with LIN7B, Q9HAP6. The negative logarithm of the Kd (pKd) result was “below the threshold” with DVL3, Q92997; “below the threshold” in the assay with SNTB1, Q13884; “below the threshold” with LAP2, Q96RT1; 4.05 with ARHGEF11, O15085; “below the threshold” with TX1BP3, O14907.
Turning to LPPPESESKV [KCNJ9, Q92806], the pKd entry in the assay with MPDZ_5, O75970 is “below the threshold”; with FRMPD2_3, Q68DX3, “below the threshold”; with PDZD2_2, O15018, 4.81; in the assay with LIN7C, Q9NUP9, “below the threshold”; in the assay with MAGI1_2, Q96QZ7, “below the threshold”; with Inadl_6, Q8NI35 it was “below the threshold”. Moreover, the pKd entry with GRIP1_4, Q9Y3R0 was “below the threshold”; with DLG3_2, Q92796 it was 4.23; in the assay with MPDZ_10, O75970, “below the threshold”; in the assay with PICK1, Q9NRD5 it was 4; in the assay with SNX27, Q96L92, 5.43; in the assay with GRID2IP_2, A4D2P6, “below the threshold”. Further, the pKd entry was “below the threshold” in the assay with GRASP, Q7Z6J2; 3.56 with FRMPD2_2, Q68DX3; “below the threshold” in the assay with LNX1_2, Q8TBB1; “below the threshold” with APBA1_1, Q02410; 4.05 with TIAM2, Q8IVF5; 3.77 with LIN7B, Q9HAP6. Further, the pKd result with DVL3, Q92997 is “below the threshold”; with SNTB1, Q13884, 4.32; with LAP2, Q96RT1, 3.85; in the assay with ARHGEF11, O15085 it was “below the threshold”; with TX1BP3, O14907, “below the threshold”.
In the case of HDDYFYHDEL [RCN2, Q14257], the pKd entry is recorded as “below the threshold” with MPDZ_5, O75970; “below the threshold” with FRMPD2_3, Q68DX3; “below the threshold” with PDZD2_2, O15018; “below the threshold” with LIN7C, Q9NUP9; “below the threshold” with MAGI1_2, Q96QZ7; “below the threshold” with Inadl_6, Q8NI35. The pKd entry with GRIP1_4, Q9Y3R0 was “below the threshold”; with DLG3_2, Q92796, “below the threshold”; in the assay with MPDZ_10, O75970, “below the threshold”; with PICK1, Q9NRD5, “below the threshold”; with SNX27, Q96L92, 3.77; in the assay with GRID2IP_2, A4D2P6, “below the threshold”. Besides, the pKd in the assay with GRASP, Q7Z6J2 was 5.01; in the assay with FRMPD2_2, Q68DX3, “below the threshold”; with LNX1_2, Q8TBB1, “below the threshold”; with APBA1_1, Q02410, “below the threshold”; with TIAM2, Q8IVF5, “below the threshold”; with LIN7B, Q9HAP6, “below the threshold”. The pKd result in the assay with DVL3, Q92997 is “below the threshold”; in the assay with SNTB1, Q13884, “below the threshold”; in the assay with LAP2, Q96RT1 it was “below the threshold”; in the assay with ARHGEF11, O15085, 4; with TX1BP3, O14907 it was 3.9.
Consider KKTPVSRSHL [SLC22A3, O75751], for which the pKd result in the assay with MPDZ_5, O75970 is “below the threshold”; in the assay with FRMPD2_3, Q68DX3, “below the threshold”; with PDZD2_2, O15018, “below the threshold”; in the assay with LIN7C, Q9NUP9, “below the threshold”; with MAGI1_2, Q96QZ7 it was 3.62; in the assay with Inadl_6, Q8NI35, “below the threshold”. The pKd entry in the assay with GRIP1_4, Q9Y3R0 was “below the threshold”; with DLG3_2, Q92796, “below the threshold”; in the assay with MPDZ_10, O75970, “below the threshold”; in the assay with PICK1, Q9NRD5, “below the threshold”; with SNX27, Q96L92, 3.65; in the assay with GRID2IP_2, A4D2P6, 5.18. The pKd is 4.38 with GRASP, Q7Z6J2; “below the threshold” in the assay with FRMPD2_2, Q68DX3; “below the threshold” with LNX1_2, Q8TBB1; “below the threshold” with APBA1_1, Q02410; “below the threshold” in the assay with TIAM2, Q8IVF5; “below the threshold” with LIN7B, Q9HAP6. Moreover, the pKd result with DVL3, Q92997 was “below the threshold”; with SNTB1, Q13884, “below the threshold”; with LAP2, Q96RT1, “below the threshold”; with ARHGEF11, O15085 it was 3.56; with TX1BP3, O14907, 3.53.

For the origin of these results see publication PMC9482650, “Quantitative fragmentomics allow affinity mapping of interactomes” (Nature Communications, 2022).
